Laboratory results as given in CN112430265A (INST FOR VIRAL DISEASE CONTROL AND PREVENTION CHINESE …, dated 2021).

Biological target: 新型冠状病毒S1蛋白 (纯化) (SARS-CoV-2, UniProt P0DTC2 14-685)

B1: 人源抗新冠病毒中和性抗体nCoV-61 全抗体IgG (antibody, V domains shown)
VH: EVQLVESGGGLVQPGGSLRLSCEASEIIVNRNYMNWVRQAPGKGLEWVSIIYPGGSTFYADSVKGRFTISRDNSKNTMYLQMNSLRAEDTAVYYCARSYGDFYVDFWGQGTLVTVSS
VL: QSVLTQPPSVSAAPGQKVTISCSGSSSNIGNNYVSWYQQLPGTAPKLLIYDNNKRPSGIPDRFSGSKSGTSATLGITGLQTGDEADYYCGTWDSSLSAWVFGGGTKLTVLG
  Kd: 3.33 pM
